{"source": "paper PMC9352680", "about": "“A comprehensive thermodynamic model for RNA binding by the Saccharomyces cerevisiae Pumilio protein PUF4”", "binders": {"B1": {"name": "Id_ii_S4_P3E.3_K3.2_C3.2_[C-2A]_H3.2_A3.1_F3.1_T3.2_[T9C]_[A10T] (ssRNA)", "RNA": "UUUGACAACUGAUCGUUCUUUCUAUUAUAUAUACUUUCUUUCUCGAUCAGUUGUCUUU"}, "B2": {"name": "Id_ii_S4_P3E.3_K3.2_C3.2_[C-2A]_[T-1C]_H3.2_A3.1_F3.1_T3.2_[T9C]_[A10C] (ssRNA)", "RNA": "UUUGACAACUGAUCGUUCUUUCUACUAUAUAUACCUUCUUUCUCGAUCAGUUGUCUUU"}, "B3": {"name": "Id_ii_S4_P3E.3_K3.2_C3.2_[C-2A]_[T-1C]_H3.2_A3.1_F3.1_T3.2_[T9C]_[A10G] (ssRNA)", "RNA": "UUUGACAACUGAUCGUUCUUUCUACUAUAUAUACGUUCUUUCUCGAUCAGUUGUCUUU"}, "B4": {"name": "Id_ii_S4_P3E.3_K3.2_C3.2_H3.2_A3.1_F3.1_T3.2_[A10T] (ssRNA)", "RNA": "UUUGACAACUGAUCGUUCUUUCUCUUAUAUAUAUUUUCUUUCUCGAUCAGUUGUCUUU"}, "B5": {"name": "Id_ii_S4_P3E.4_K3.3_C3.2_[C-2G]_[T-1C]_H3.3_A3.1_F3.1_T3.2_[T9C] (ssRNA)", "RNA": "UUUGACAACUGAUCGUUCUUUCUGCACACUAUACAUUCUUUCUCGAUCAGUUGUCUUU"}, "B6": {"name": "Id_ii_S4_P3E.3_K3.2_C3.2_H3.2_A3.1_F3.1_T3.2 (ssRNA)", "RNA": "UUUGACAACUGAUCGUUCUUUCUCUUAUAUAUAUAUUCUUUCUCGAUCAGUUGUCUUU"}, "B7": {"name": "Id_ii_S4_P3E.3_K3.2_C3.2_[T-1A]_H3.2_A3.1_F3.1_T3.2_[T9G]_[A10C] (ssRNA)", "RNA": "UUUGACAACUGAUCGUUCUUUCUCAUAUAUAUAGCUUCUUUCUCGAUCAGUUGUCUUU"}, "B8": {"name": "Id_ii_S4_P3E.3_K3.2_C3.2_[T-1C]_H3.2_A3.1_F3.1_T3.2_[T9C]_[A10C] (ssRNA)", "RNA": "UUUGACAACUGAUCGUUCUUUCUCCUAUAUAUACCUUCUUUCUCGAUCAGUUGUCUUU"}, "B9": {"name": "Id_ii_S4_P3E.3_K3.2_C3.2_[T-1G]_H3.2_A3.1_F3.1_T3.2_[T9G]_[A10C] (ssRNA)", "RNA": "UUUGACAACUGAUCGUUCUUUCUCGUAUAUAUAGCUUCUUUCUCGAUCAGUUGUCUUU"}, "B10": {"name": "Id_ii_S4_P3E.4_K3.3_C3.2_[C-2G]_H3.3_A3.1_F3.1_T3.2_[T9C]_[A10C] (ssRNA)", "RNA": "UUUGACAACUGAUCGUUCUUUCUGUACACUAUACCUUCUUUCUCGAUCAGUUGUCUUU"}, "B11": {"name": "Id_ii_S4_P3E.3_K3.2_C3.2_[T-1C]_H3.2_A3.1_F3.1_T3.2_[T9C]_[A10T] (ssRNA)", "RNA": "UUUGACAACUGAUCGUUCUUUCUCCUAUAUAUACUUUCUUUCUCGAUCAGUUGUCUUU"}, "B12": {"name": "Id_ii_S4_P3E.3_K3.2_C3.2_H3.2_A3.1_F3.1_T3.2_[T9C]_[A10C] (ssRNA)", "RNA": "UUUGACAACUGAUCGUUCUUUCUCUUAUAUAUACCUUCUUUCUCGAUCAGUUGUCUUU"}, "B13": {"name": "Id_ii_S4_P3E.3_K3.2_C3.2_[C-2A]_[T-1A]_H3.2_A3.1_F3.1_T3.2_[T9C]_[A10T] (ssRNA)", "RNA": "UUUGACAACUGAUCGUUCUUUCUAAUAUAUAUACUUUCUUUCUCGAUCAGUUGUCUUU"}, "B14": {"name": "Id_ii_S4_P3E.3_K3.2_C3.2_[C-2A]_[T-1A]_H3.2_A3.1_F3.1_T3.2_[T9A]_[A10C] (ssRNA)", "RNA": "UUUGACAACUGAUCGUUCUUUCUAAUAUAUAUAACUUCUUUCUCGAUCAGUUGUCUUU"}, "B15": {"name": "Id_ii_S4_P3E.3_K3.2_C3.2_H3.2_A3.1_F3.1_T3.2_[A10C] (ssRNA)", "RNA": "UUUGACAACUGAUCGUUCUUUCUCUUAUAUAUAUCUUCUUUCUCGAUCAGUUGUCUUU"}, "B16": {"name": "Id_ii_S4_P3E.3_K3.2_C3.2_[C-2A]_H3.2_A3.1_F3.1_T3.2_[T9A] (ssRNA)", "RNA": "UUUGACAACUGAUCGUUCUUUCUAUUAUAUAUAAAUUCUUUCUCGAUCAGUUGUCUUU"}, "B17": {"name": "Id_ii_S4_P3E.3_K3.2_C3.2_H3.2_A3.1_F3.1_T3.2_[T9A]_[A10C] (ssRNA)", "RNA": "UUUGACAACUGAUCGUUCUUUCUCUUAUAUAUAACUUCUUUCUCGAUCAGUUGUCUUU"}, "B18": {"name": "Id_ii_S4_P3E.4_K3.3_C3.2_[C-2G]_[T-1C]_H3.3_A3.1_F3.1_T3.2_[T9G]_[A10T] (ssRNA)", "RNA": "UUUGACAACUGAUCGUUCUUUCUGCACACUAUAGUUUCUUUCUCGAUCAGUUGUCUUU"}, "B19": {"name": "Id_ii_S4_P3E.4_K3.3_C3.2_[C-2G]_[T-1C]_H3.3_A3.1_F3.1_T3.2_[T9C]_[A10C] (ssRNA)", "RNA": "UUUGACAACUGAUCGUUCUUUCUGCACACUAUACCUUCUUUCUCGAUCAGUUGUCUUU"}, "B20": {"name": "Id_ii_S4_P3E.4_K3.3_C3.2_[C-2G]_[T-1C]_H3.3_A3.1_F3.1_T3.2_[T9A]_[A10T] (ssRNA)", "RNA": "UUUGACAACUGAUCGUUCUUUCUGCACACUAUAAUUUCUUUCUCGAUCAGUUGUCUUU"}}}
{"target": "T1, PUF4 RNA-binding domain (Saccharomyces cerevisiae, UniProt P25339 537-888)", "T1 sequence": "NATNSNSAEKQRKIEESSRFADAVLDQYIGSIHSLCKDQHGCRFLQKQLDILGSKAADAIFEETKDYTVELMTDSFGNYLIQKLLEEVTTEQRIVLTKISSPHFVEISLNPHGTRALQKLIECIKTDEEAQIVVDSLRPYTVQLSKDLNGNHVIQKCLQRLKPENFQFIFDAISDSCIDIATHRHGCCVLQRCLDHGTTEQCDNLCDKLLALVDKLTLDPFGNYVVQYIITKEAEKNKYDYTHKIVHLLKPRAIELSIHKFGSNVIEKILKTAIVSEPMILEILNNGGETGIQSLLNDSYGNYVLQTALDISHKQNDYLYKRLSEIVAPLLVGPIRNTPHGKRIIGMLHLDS", "experiment": "Mg; RNA-MaP; 20 mM Na-HEPES pH 7.4, 30 mM KOAc, 0.75 mM MgCl2, 0.1% Tween-20, 5% glycerol, 0.1 mg/mL BSA, 2 mM DTT; 25 C; 0.0125-409.6 nM protein", "settings": "tags: N-His6-TEV cleaved; C-SNAP kept, Cy3B-labelled; label: tethered on chip by stalled RNA polymerase", "units": {"Kd": "nM"}}
{"binder": "B1", "Kd": 214}
{"binder": "B2", "Kd": 184}
{"binder": "B3", "Kd": 2050}
{"binder": "B4", "Kd": 56.4}
{"binder": "B5", "Kd": 115}
{"binder": "B6", "Kd": 68.6}
{"binder": "B7", "Kd": 243}
{"binder": "B8", "Kd": 244}
{"binder": "B9", "Kd": 194}
{"binder": "B10", "Kd": 1.46}
{"binder": "B11", "Kd": 92.9}
{"binder": "B12", "Kd": 190}
{"binder": "B13", "Kd": 167}
{"binder": "B14", "Kd": 445}
{"binder": "B15", "Kd": 104}
{"binder": "B16", "Kd": 831}
{"binder": "B17", "Kd": 176}
{"binder": "UCUCUUAGUAUUCUUAUCUCUU (ssRNA)", "note": "[Ib_S1_P5E.1_K5.1_C5.1_H5.1_[T1A]_A5.1_[A7C]_F5.1_T5.1]", "Kd": 1460}
{"binder": "UCUCUUUGUAUCAUUAUCUCUU (ssRNA)", "note": "[Ia_S1_P5E.1_K5.1_C5.1_H5.1_A5.1_[T6C]_F5.1_T5.1]", "Kd": 6.62}
{"binder": "UCUCUUUCUAAUAUUAUCUCUU (ssRNA)", "note": "[Ib_S1_P5E.1_K5.1_C5.1_H5.1_[G2C]_A5.1_[T5A]_F5.1_T5.1]", "Kd": "> 2300"}
{"binder": "B18", "Kd": 593}
{"binder": "B19", "Kd": 50.2}
{"binder": "B20", "Kd": 60.5}
{"binder": "UCUCUUAGUAUUUUUAUCUCUU (ssRNA)", "note": "[Ib_S1_P5E.1_K5.1_C5.1_H5.1_[T1A]_A5.1_[A7T]_F5.1_T5.1]", "Kd": 1470}
